Data reported in the supplement of paper PMC7125110.
± gives the standard error. For some of these results: Variants at the floor of the assay were thinned out.

B1: glmS ribozyme (parent)
chain: AUAAAAGCGCCAGAACUACAGAAAUGUAGUUGACGAGGAGGAGGUUUAUCGAAUUUUCGGCGGAUGCCUCCAAA

Tests used:
Conditions in all cases: with glucosamine-6-phosphate
glucosamine-6-phosphate [1] = variants of: B1; experiment: kcat; higher = faster cleavage; RNA array
Method in brief: (§1)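 A hybridised Cy3 probe tracked barcoded ribozyme variants, transcribed in situ by E. coli RNA polymerase on sequenced MiSeq chips, at 37 °C. The variants received 40 μM to 10 mM glucosamine-6-phosphate in HEPES/KCl/Mg(OAc)2 buffer. kobs came from decay fits and kcat and KM from weighted Michaelis–Menten fits.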

glucosamine-6-phosphate [2] = variants of: B1; experiment: KM; higher = weaker cofactor use; RNA array
Method in brief: as §1

glucosamine-6-phosphate [3] = variants of: B1; experiment: self-cleavage kobs at 40 uM GlcN6P; higher = faster cleavage; RNA array
Method in brief: as §1

glucosamine-6-phosphate [4] = variants of: B1; experiment: self-cleavage kobs at 160 uM GlcN6P; higher = faster cleavage; RNA array
Method in brief: as §1

glucosamine-6-phosphate [5] = variants of: B1; experiment: self-cleavage kobs at 640 uM GlcN6P; higher = faster cleavage; RNA array
Method in brief: as §1

glucosamine-6-phosphate [6] = variants of: B1; experiment: self-cleavage kobs at 2500 uM GlcN6P; higher = faster cleavage; RNA array
Method in brief: as §1

glucosamine-6-phosphate [7] = variants of: B1; experiment: self-cleavage kobs at 10000 uM GlcN6P; higher = faster cleavage; RNA array
Method in brief: as §1

Variant	kcat (glucosamine-6-phosphate [1]) [s⁻¹]	KM (glucosamine-6-phosphate [2]) [µM]	self-cleavage kobs at 40 uM GlcN6P (glucosamine-6-phosphate [3]) [s⁻¹]	self-cleavage kobs at 160 uM GlcN6P (glucosamine-6-phosphate [4]) [s⁻¹]	self-cleavage kobs at 640 uM GlcN6P (glucosamine-6-phosphate [5]) [s⁻¹]	self-cleavage kobs at 2500 uM GlcN6P (glucosamine-6-phosphate [6]) [s⁻¹]	self-cleavage kobs at 10000 uM GlcN6P (glucosamine-6-phosphate [7]) [s⁻¹]
U31G G37C	2.89e-05 ± 1.4e-06	1380 ± 340	< 1e-05	–	–	–	–
C16A C34U C71U	1.28e-05 ± 4.6e-06	–	–	< 1e-05	–	–	–
C11A	0.000291 ± 2.1e-05	2280 ± 280	< 1e-05	2.39e-05 ± 2.4e-06	6.25e-05 ± 1.7e-06	0.000153 ± 3.1e-06	0.000236 ± 1.4e-05
C16U U55G C68U	–	507 ± 230	0.000134 ± 2.4e-05	0.000342 ± 0.00016	0.00106 ± 0.0003	0.00118 ± 0.00028	0.00354 ± 0.00087
A12G U56C	0.000482 ± 5.2e-05	9850 ± 1600	–	–	3.18e-05 ± 1.4e-05	9.57e-05 ± 1.7e-05	0.000244 ± 3.4e-05
G9U A48C C50G	–	92.6 ± 7.4	–	–	–	–	–
C68A	–	–	< 1e-05	5.51e-05 ± 1.8e-05	0.000539 ± 0.00015	0.000102 ± 4.6e-05	0.000447 ± 7.5e-05
U30A A39G	–	–	0.000182 ± 2.7e-05	0.000615 ± 0.00023	0.00306 ± 0.0014	–	0.0319 ± 0.014
A33U G37U	< 1e-05	–	–	< 1e-05	–	–	–
A6C G7U A12U A15U	–	–	< 1e-05	–	–	–	< 1e-05
C61A U69G	< 1e-05	–	< 1e-05	–	–	–	–
G13U C71G	5.14e-05 ± 2.7e-06	155 ± 74	–	–	3.7e-05 ± 9e-06	5.35e-05 ± 1e-05	5.01e-05 ± 5.6e-06
G7C A12G C67A	–	–	< 1e-05	–	–	–	< 1e-05
G37A U46A	0.000136 ± 4.3e-06	2840 ± 210	< 1e-05	–	2.37e-05 ± 7.5e-06	6.45e-05 ± 7.8e-06	0.000105 ± 1.1e-05
C16U G29A	0.0165 ± 0.0058	–	0.00117 ± 0.00016	0.00189 ± 0.00052	0.0124 ± 0.0019	0.0121 ± 0.0031	0.0147 ± 0.0029
G59A A64U	–	–	< 1e-05	–	–	< 1e-05	< 1e-05
C58U G59C	–	–	< 1e-05	–	–	–	–
A36U U69A	4.58e-05 ± 1.6e-05	–	5.11e-05 ± 1.6e-05	–	–	7.35e-05 ± 2.7e-05	–
U45G C61G	–	–	< 1e-05	< 1e-05	< 1e-05	< 1e-05	< 1e-05

Variant	kcat (glucosamine-6-phosphate [1]) [s⁻¹]	KM (glucosamine-6-phosphate [2]) [µM]	self-cleavage kobs at 40 uM GlcN6P (glucosamine-6-phosphate [3]) [s⁻¹]	self-cleavage kobs at 160 uM GlcN6P (glucosamine-6-phosphate [4]) [s⁻¹]	self-cleavage kobs at 640 uM GlcN6P (glucosamine-6-phosphate [5]) [s⁻¹]	self-cleavage kobs at 2500 uM GlcN6P (glucosamine-6-phosphate [6]) [s⁻¹]	self-cleavage kobs at 10000 uM GlcN6P (glucosamine-6-phosphate [7]) [s⁻¹]
A15C G37C G40A G43U	–	–	< 1e-05	–	–	–	< 1e-05
G40C C50G	–	–	< 1e-05	< 1e-05	–	< 1e-05	< 1e-05
G9C U47G	–	–	< 1e-05	–	–	–	< 1e-05
G32C G35A G51U	–	–	< 1e-05	–	–	< 1e-05	< 1e-05
U31C G35U A39C G44U U55A	–	–	< 1e-05	< 1e-05	< 1e-05	< 1e-05	< 1e-05
G41A G63A	–	–	< 1e-05	–	< 1e-05	–	< 1e-05
C16A C34A	–	–	< 1e-05	< 1e-05	< 1e-05	< 1e-05	< 1e-05
G40U U45A	0.0022 ± 0.00057	1030 ± 420	8.3e-05 ± 1.1e-05	0.000265 ± 4.2e-05	0.00081 ± 0.0001	0.00235 ± 0.00023	0.00154 ± 0.00024
C10G U49C	< 1e-05	–	< 1e-05	< 1e-05	–	< 1e-05	< 1e-05
A33C U54G	0.00057 ± 0.00014	–	–	8.91e-05 ± 2.6e-05	8.56e-05 ± 1.7e-05	0.000325 ± 3.8e-05	0.00043 ± 4.3e-05
C10G C61U	–	–	< 1e-05	< 1e-05	< 1e-05	–	< 1e-05
A14C A48U	5.62e-05 ± 5.4e-06	3170 ± 1200	–	–	–	–	4.26e-05 ± 7.7e-06
A14U A42G	0.0156 ± 0.0054	2710 ± 1300	0.000273 ± 3.1e-05	0.00064 ± 0.00015	0.00347 ± 0.00055	0.00517 ± 0.001	0.0147 ± 0.0018
C16A G32U	0.000568 ± 9.6e-05	6390 ± 1500	–	–	5.63e-05 ± 1e-05	0.000143 ± 2.8e-05	0.000363 ± 6.7e-05
G32U A64U	< 1e-05	–	–	< 1e-05	< 1e-05	–	–
G44A A64C	–	–	< 1e-05	–	< 1e-05	< 1e-05	< 1e-05
G29C C50G C61A U65C	–	–	7.48e-05 ± 2.1e-05	–	–	–	–
C10U U57G	–	–	< 1e-05	–	–	–	–
